Assay results taken from the RNAGym collection of RNA variant scans (doi:10.1093/nar/gkz1192).

B1: CPEB3 Ribozyme (parent)
chain: UAACAGGGGGCCACAGCAGAAGCGUUCACGUCGCAGCCCCUGUCAGAUUCUGGUGAAUCUGCGAAUUCUGCUGUAUAUCUC

Variants of: B1
Assay: self-cleavage, relative activity (ratio to wild type); higher = more cleavage; in vitro, sequencing
In short: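 Barcoded CPEB3 ribozyme mutants, produced by rounds of error-prone PCR, self-cleaved while being transcribed with T7 RNA polymerase for 5 hours at 37°C and during a subsequent 15 min DNase I step before EDTA was added. Sequencing of template-switched cDNA on Illumina gave cleaved and total reads, and DNA sequencing assigned barcodes to variants. Each variant's relative activity is its cleaved/total read fraction divided by the unmutated ribozyme's fraction, averaged across three batches. A variant needed a minimum of 5 reads.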

Variant | self-cleavage
A2U A75G | 1.04
A2U A75U | 1.09
A2U A77G | 1.04
A2U C4U | 1.15
A2U C12G | 0.19
A2U C12U | 1.18
A2U C17U | 0.31
A2U C23U | 0.35
A2U C34U | 0.24
A2U C37A | 0.16
A2U C39A | 0.42
A2U C40G | 0.31
A2U C40U | 0.89
A2U C44A | 0.24
A2U C50U | 0.79
A2U C62G | 0.31
A2U C62U | 0.31
A2U G6A | 0.66
A2U G8A | 0.27
A2U G8U | 0.28
A2U G9A | 0.15
A2U G9C | 0.45
A2U G10A | 0.26
A2U G10U | 0.29

Variant | self-cleavage
A2U G16A | 0.18
A2U G19A | 0.29
A2U G22A | 0.22
A2U G24A | 0.3
A2U G24U | 0.34
A2U G33U | 0.32
A2U G36A | 0.29
A2U G42A | 0.43
A2U G52C | 1.04
A2U G70C | 0.31
A2U U25A | 0.09
A2U U25C | 0.37
A2U U26A | 0.87
A2U U26C | 0.55
A2U U26G | 0.5
A2U U31A | 0.48
A2U U31C | 0.81
A2U U41A | 0.25
A2U U41C | 1.07
A2U U43A | 1.05
A2U U43C | 0.47
A2U U48C | 0.62
A2U U49A | 0.72
A2U U51A | 1.17

Variant | self-cleavage
A2U U51C | 1.07
A2U U51G | 1.17
A2U U54A | 1.15
A2U U54C | 1.13
A2U U54G | 0.77
A2U U58A | 0.35
A2U U58C | 0.42
A2U U60A | 0.56
A2U U60C | 0.47
A2U U66A | 0.52
A2U U66C | 0.38
A2U U67A | 0.49
A2U U67C | 0.39
A2U U69A | 0.52
A2U U72A | 0.67
A2U U72C | 1.11
A2U U74C | 0.91
A2U U76A | 1.14
A2U U76C | 1.15
A2U U78C | 0.87
A2U U80A | 1.14
A2U U80C | 1.09
A2U U80G | 1.06
A3C | 1.16

Variant | self-cleavage
A3C A5C | 1.23
A3C A5G | 0.62
A3C A15G | 1.03
A3C A15U | 0.77
A3C A18G | 0.64
A3C A18U | 0.73
A3C A20G | 1.05
A3C A21G | 0.63
A3C A28G | 1.09
A3C A35G | 1.21
A3C A35U | 0.81
A3C A45G | 0.93
A3C A45U | 0.89
A3C A47G | 1.12
A3C A56G | 1.12
A3C A56U | 0.65
A3C A57G | 1.19
A3C A64G | 1.17
A3C A65G | 0.92
A3C A65U | 0.95
A3C A75G | 1.14
A3C A77U | 1.03
A3C C11U | 0.88
A3C C17U | 0.54

Variant | self-cleavage
A3C C37U | 0.6
A3C C39U | 1.13
A3C C44G | 0.84
A3C C62U | 0.29
A3C C81G | 1.19
A3C G7U | 0.39
A3C G24A | 0.29
A3C G33C | 0.35
A3C G46A | 0.25
A3C G61C | 0.32
A3C U25A | 0.4
A3C U25C | 0.44
A3C U25G | 0.55
A3C U26A | 1.2
A3C U26C | 0.6
A3C U31G | 0.93
A3C U41A | 0.24
A3C U41C | 1.02
A3C U41G | 0.56
A3C U43A | 1.24
A3C U43C | 0.81
A3C U49A | 1.1
A3C U49C | 0.86
A3C U51A | 1.19

Variant | self-cleavage
A3C U51C | 1.12
A3C U54C | 1.17
A3C U58A | 0.5
A3C U58C | 0.4
A3C U58G | 0.25
A3C U60C | 0.83
A3C U67C | 0.33
A3C U69A | 1.08
A3C U72A | 1.09
A3C U74A | 1.14
A3C U76A | 1
A3C U78C | 1.12
A3G | 1.02
A3G A5C | 0.71
A3G A5G | 0.76
A3G A5U | 1.04
A3G A13C | 1.02
A3G A13G | 0.95
A3G A13U | 1.02
A3G A15C | 0.95
A3G A15G | 0.84
A3G A15U | 0.78
A3G A18C | 0.46
A3G A18G | 0.73

Variant | self-cleavage
A3G A18U | 0.44
A3G A20C | 0.75
A3G A20G | 0.86
A3G A20U | 0.41
A3G A21G | 0.73
A3G A21U | 0.49
A3G A28C | 0.73
A3G A28G | 0.72
A3G A28U | 0.89
A3G A35C | 0.9
A3G A35G | 1.21
A3G A35U | 0.64
A3G A45G | 0.78
A3G A45U | 0.4
A3G A47G | 0.92
A3G A47U | 0.48
A3G A56C | 0.8
A3G A56G | 0.77
A3G A56U | 0.64
A3G A57C | 0.49
A3G A57G | 0.86
A3G A57U | 0.69
A3G A64G | 0.92
